Data published in the supplement of paper PMC9170038.

System: MS2 coat protein
Experiment: apparent KD of MS2 coat protein; designed switch direction (-1 OFF switch, 1 ON switch): -1; higher = weaker reporter binding
Outline: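 Apparent KD, taken as the median over clusters for each design, was obtained by curve-fitting normalised cluster fluorescence. Designed RNA switches had been transcribed on Illumina chips by stalled E. coli RNA polymerase and titrated with SNAP-549-labelled MS2 coat protein, doubling from 0.7 or 1.5 nM to 3 µM.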

[1] = input ligand: microRNA oligo, concentration not stated
[2] = Eterna round: R95, input ligand: microRNA oligo, concentration not stated
[3] = Eterna round: R95, input ligand: FMN 200 uM
[4] = Eterna round: R95, input ligand: none

| Sequence | apparent KD of MS2 coat protein (input ligand: FMN 200 uM) | apparent KD of MS2 coat protein [1] | apparent KD of MS2 coat protein (input ligand: none) | apparent KD of MS2 coat protein [2] | apparent KD of MS2 coat protein [3] | apparent KD of MS2 coat protein [4] |
| --- | --- | --- | --- | --- | --- | --- |
| AGGACAUGAGGAUCACCCAUGUAGUGAGGUGUAUCCGAAGACGAGGAUAUACAGAGGAAAUAUCUGUAGAAGGUGUAAUAAAAU [Istediso] (Eterna round: R96, puzzle: Exclusion NG 3) | 0.725 µM | 0.247 µM | 0.299 µM |  |  |  |
| AGGAGGAGUUCAGGAUAUUCGACAUGAGGAUCACCCAUGUGGGUAAUAUAUAGUAAAGAGAUAGAGAAGAAGGGAAGGGAGGAG [Exclusion NG2] (Eterna round: R96, puzzle: Exclusion NG 2) | 0.0425 µM | 0.0235 µM | 0.036 µM |  |  |  |
| AGGCGCUAGUAGGAUAUCUGGAACGGAUUAUAAAGAGAAGGGCUGACAUGAGGAUCACCCAUGUGACCAAUGCG [Eternabot (L1) Solution 50] (Eterna round: R97, puzzle: Exclusion 6) | 0.0412 µM |  | 0.0506 µM |  |  |  |
| AGGGAUAAAGGAUAUACAUGAGGAUCACCCAUGUUGAGGAAAGUGAGAGGUGGCGAUAGUAGAAGGUUAGGUGG [JR_Exclu3_Sub083] (puzzle: Exclusion 3) |  |  |  | 0.0799 µM |  |  |
| AGGGCACAUGAGGAUCACCCAUGUGAGGAUAUCCCGGUACUAUCGAUGUAGUAAUCGUGGAGAAGGCACACGAC [EX1 C.21] (Eterna round: R97, puzzle: Exclusion 1) | 0.0903 µM |  | 0.0626 µM |  |  |  |
| AGGUAACAUGAGGAUCACCCAUGUCAGGAUAUCAGUAAGAUGAGAAUAGAGUAGAGUAUGAGAAGGGACUAUAU [Excluse me! 21 - Jieux - Exclusion 1] (puzzle: Exclusion 1) |  |  |  | 0.0374 µM |  |  |
| AGGUAACAUGAGGAUCACCCAUGUCAGGAUAUCAGUAAGAUUAGAAUAGAGUAGAGGAUGAGAAGGGACUAUAU [Excluse me! 19- Jieux - Exclusion 1] (puzzle: Exclusion 1) |  |  |  | 0.0427 µM |  |  |
| AGGUAACAUGAGGAUCACCCAUGUCAGGAUAUCAUGAAGAGGAGAUUAGAGGAGAGGUUGAGAAGGGACUAUAU [Excluse me! 14 - Jieux - Exclusion 1] (puzzle: Exclusion 1) |  |  |  | 0.0571 µM |  |  |
| AGGUACUUCAGGAGACAUGAGGAUCACCCAUGUUGAGUUAGCGAGGAUAUCGGUAACCAUUGUUAUGAGAAGGCGCAAACCAGA [Ex NG3 #42] (Eterna round: R96, puzzle: Exclusion NG 3) | 0.0259 µM | 0.015 µM | 0.0153 µM |  |  |  |
| AGGUCACAUGAGGAUCACCCAUGUCAGGAUAUCUACAUUGAAGCCUCGGCUUCAAUGUAGAGAAGGGACAAUUA [E1/6-B2] (Eterna round: R97, puzzle: Exclusion 1) | 0.209 µM |  | 0.0722 µM |  |  |  |
| AGGUCACAUGAGGAUCACCCAUGUGAGGAUAUUUACUCAAGAGCUUCGGCUCUCAAGUGAAGAAGGCGCAAUGA [EX1 #53] (Eterna round: R97, puzzle: Exclusion 1) | 0.0346 µM |  | 0.0328 µM |  |  |  |
| AGGUGACAUGAGGAUCACCCAUGUAAGGAUAUACGGUUAGUGGAGAGUUGGAAGAGAGGUAGAAGGUACGGAGC [JR_Exclu1_Sub059] (puzzle: Exclusion 1) |  |  |  | 0.197 µM |  |  |
| AGGUGAGCCGUCAGGAUAUGCGUUCCGUAGGGUCAGCAGAAGGGACAUGAGGAUCACCCAUGUUUCGCACGUGG [Veraxedi] (Eterna round: R96, puzzle: Brourd's mod of Exclusion 4) | 0.0765 µM | 0.0235 µM | 0.0315 µM |  |  |  |
| AGGUGAGCCGUCAGGAUAUGCGUUCCGUAGGGUCAGCAGAAGGGACAUGAGGAUCACCCAUGUUUCGCACGUGG [Veraxedi] (puzzle: Brourd's mod of Exclusion 4) |  |  |  | 0.031 µM |  |  |
| AGGUGCCUCUGGAAACAUGAGGAUCACCCAUGUUGAGUUAGCGAGGAUAUCGGUAACCAUUGUUAUGAGAAGGCGCAAACCAGA [Ex NG3 #38] (Eterna round: R96, puzzle: Exclusion NG 3) | 0.0607 µM | 0.0196 µM | 0.0276 µM |  |  |  |
| AGGUGGAAGCAGGAUAUGCUUGUAUAAUUGAUAGCAGAAGGGCUAACAUGAGGAUCACCCAUGUAAGAGGUGUA [JR_E6_Sub058] (puzzle: Exclusion 6) |  |  |  | 0.177 µM | 0.34 µM | 0.206 µM |

| Sequence | apparent KD of MS2 coat protein (input ligand: FMN 200 uM) | apparent KD of MS2 coat protein [1] | apparent KD of MS2 coat protein (input ligand: none) | apparent KD of MS2 coat protein [2] | apparent KD of MS2 coat protein [3] | apparent KD of MS2 coat protein [4] |
| --- | --- | --- | --- | --- | --- | --- |
| AGGUGUAGAGGAUAUCUAUCCUCCCACAUGAGGAUCACCCAUGUCCUGGUCACCAAGGACGGAGAAGGCUACACCA [Omei Ex5 D19] (Eterna round: R97, puzzle: Exclusion 5) | 0.153 µM |  | 0.292 µM |  |  |  |
| AGGUGUAGAGGAUAUCUCUUCUCUCACAUGAGGAUCACCCAUGUCCUGGGCACCAAGGAGAGAGAAGGCUACACCA [Omei Ex5 D10] (Eterna round: R97, puzzle: Exclusion 5) | 0.0727 µM |  | 0.271 µM |  |  |  |
| AGGUGUAGAGGAUAUCUCUUCUCUCACAUGAGGAUCACCCAUGUCCUGGUCACCAAGGAGAGAGAAGGCUACACCA [Omei Ex5 D9] (Eterna round: R97, puzzle: Exclusion 5) | 0.0564 µM |  | 0.0764 µM |  |  |  |
| AGGUGUAGAGGAUAUUCAUUCUUCCACAUGAGGAUCACCCAUGUCCCGGUCACCAGGGACGGAGAAGGCUACACCA [Omei Ex5 D26] (Eterna round: R97, puzzle: Exclusion 5) | 0.108 µM |  | 0.0768 µM |  |  |  |
| AGGUGUCUCUGGAAACAUGAGGAUCACCCAUGUUGAGUUAGCGAGGAUAUCGGUAACCAUUGUUAUGAGAAGGCGCAAACCAGA [Ex NG3 #39] (Eterna round: R96, puzzle: Exclusion NG 3) | 0.0148 µM | 0.0183 µM | 0.0254 µM |  |  |  |
| AGUAACAGAGGAUAUACUAUUUUAUGUGUUUAUUGUUUUGAACAUGAGGAUCACCCAUGUAGAAGGCUGAAUAA [JMF 95] (puzzle: Exclusion 2) |  |  |  | 0.0245 µM |  |  |
| AGUAACAGAGGAUAUACUAUUUUAUGUGUUUGUUAUUUUAAACAUGAGGAUCACCCAUGUAGAAGGCUGAAUAA [JMF 84] (puzzle: Exclusion 2) |  |  |  | 0.021 µM |  |  |
| AGUAACAGAGGAUAUACUGUUUUAUGUGUUUGUUGUUUUAAACAUGAGGAUCACCCAUGUAGAAGGCUGAAUAA [JMF 87] (puzzle: Exclusion 2) |  |  |  | 0.0188 µM |  |  |
| AGUAACCGUCACGAAAGUGAUGGUUACGCAAGCAAAUGUACAUGAGGAUCACCCAUGUCCUCAAUUGCUCGUCUUAU [Sensor 3 - 51] (puzzle: Sensor v3, turn-off variant 2) |  |  |  | 0.175 µM | 0.102 µM | 0.114 µM |
| AGUAACUAUCACGAAAGUGAUAGUUACAACAAGUGAUAAACAUGAGGAUCACCCAUGUCCUCAUUUGUUCGUCUUAU [Sensor 3 - 14] (puzzle: Sensor v3, turn-off variant 2) |  |  |  | 0.373 µM | 0.24 µM | 0.225 µM |
| AGUAACUAUCACGAAAGUGAUAGUUACACAAGUAGUGAAACAUGAGGAUCACCCAUGUCCUCAUUUGCUCGUCUUAU [Sensor 3 - 33] (puzzle: Sensor v3, turn-off variant 2) |  |  |  | 0.168 µM | 0.461 µM | 0.925 µM |
| AGUAACUAUCACGAAAGUGAUAGUUACACAAGUGUAAUAACAUGAGGAUCACCCAUGUCCUCAUUUGCUCGUCUUAU [Sensor 3 - 34] (puzzle: Sensor v3, turn-off variant 2) |  |  |  | 0.162 µM | 0.149 µM | 0.0336 µM |
| AGUACUAACACGAAAGUGUUAGUAAAAUAAGCUUGUGGUACAUGAGGAUCACCCAUGUCCUCAUAAGCUCGUCUUAU [Mat - Sensor v3 - Turn-off var 2 - D42] (puzzle: Sensor v3, turn-off variant 2) |  |  |  | 0.0788 µM | 0.0216 µM | 0.0206 µM |
| AGUACUAACACGAAAGUGUUAGUACAACAAGCUUGUGAAACAUGAGGAUCACCCAUGUCCUCAUAAGCUCGUCUUAU [salish99_TOv2_r3_042] (puzzle: Sensor v3, turn-off variant 2) |  |  |  | 0.463 µM | 0.0137 µM | 0.0119 µM |
| AGUACUAACACGAAAGUGUUAGUACAAUAAGCUAGUGGAACAUGAGGAUCACCCAUGUCCUCAUUAGCUCGUCUUGG [Mat - Sensor v3 - Turn-off var 2 - D40] (puzzle: Sensor v3, turn-off variant 2) |  |  |  | 0.0196 µM | 0.0164 µM | 0.0146 µM |
| AGUACUAACACGAAAGUGUUAGUACAAUAAGCUUGUGAAACAUGAGGAUCACCCAUGUCCUCAUUAGCUCGUCUUAU [salish99_TOv2_r3_050] (puzzle: Sensor v3, turn-off variant 2) |  |  |  | 0.451 µM | 0.184 µM | 0.172 µM |
